Target: T1, VDRm-NT (vitamin D receptor, flexible loop deleted, no His-tag) (rat, UniProt P13053 1-423, del165-211)
T1 sequence: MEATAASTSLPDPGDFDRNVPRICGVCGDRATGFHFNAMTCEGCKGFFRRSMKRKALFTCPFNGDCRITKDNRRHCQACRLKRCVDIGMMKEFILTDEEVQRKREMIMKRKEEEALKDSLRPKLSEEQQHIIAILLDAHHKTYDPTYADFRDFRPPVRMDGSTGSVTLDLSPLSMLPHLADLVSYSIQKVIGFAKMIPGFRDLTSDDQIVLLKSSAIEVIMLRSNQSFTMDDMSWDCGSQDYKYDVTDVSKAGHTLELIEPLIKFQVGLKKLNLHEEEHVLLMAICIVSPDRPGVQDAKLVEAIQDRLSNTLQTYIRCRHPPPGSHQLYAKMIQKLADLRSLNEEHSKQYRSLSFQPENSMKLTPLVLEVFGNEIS
Experiment: EMSA

B1: VDRE duplex (dsDNA)
DNA 1: CACGGTTCACGAGGTTCACAC
DNA 2: GTGTGAACCTCGTGAACCGTG
binding result: binds
